Measurements from patent US20130210709A1 (ANCHOR THERAPEUTICS, published 2013).
Where two headings read alike, the source gives them in different places. Ends that are not written are not given here. * marks the point of attachment. Palmitoyl = CCCCCCCCCCCCCCCC(=O)*

Columns and labels:
Test in all cases: cell-based or functional assay
CXCR4 receptor [1] = biological target: T1, CXCR4 receptor (human, UniProt P61073 1-352)
CXCR4 receptor [2] = biological target: T1, CXCR4 receptor; remark: listed apart in the source
CXCR4 receptor [3] = biological target: T1, CXCR4 receptor; remark: listed apart in the source
CXCR4 receptor [4] = biological target: T1, CXCR4 receptor; remark: listed apart in the source

T1 sequence (P61073 whole entry): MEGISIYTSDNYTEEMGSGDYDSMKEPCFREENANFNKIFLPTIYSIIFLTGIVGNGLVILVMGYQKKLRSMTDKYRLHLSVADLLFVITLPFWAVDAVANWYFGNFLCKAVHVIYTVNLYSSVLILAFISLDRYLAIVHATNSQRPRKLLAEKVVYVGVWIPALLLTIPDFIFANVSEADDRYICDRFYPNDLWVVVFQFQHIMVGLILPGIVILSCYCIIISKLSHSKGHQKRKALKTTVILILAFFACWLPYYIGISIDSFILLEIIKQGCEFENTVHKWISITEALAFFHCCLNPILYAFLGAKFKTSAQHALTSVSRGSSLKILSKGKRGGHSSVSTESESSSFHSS

Row | Binder | AUC (% of Vehicle), CHTX, CEM, 1.0 uM (CXCR4 receptor [1]) | Max (% of Vehicle), CHTX, CEM, 1.0 uM (CXCR4 receptor [1]) | Peak Ratio, CHTX, CEM, 1.0 uM (CXCR4 receptor [1]) | also measured
1 | Palmitoyl-GAKFKTSAQHALTSVSRGSSLK-NH2 (SMILES CCCCCCCCCCCCCCCC(=O)NCC(=O)N[C@@H](C)C(=O)N[C@@H](CCCCN)C(=O)N[C@@H](Cc1ccccc1)C(=O)N[C@@H](CCCCN)C(=O)N[C@H](C(=O)N[C@@H](CO)C(=O)N[C@@H](C)C(=O)N[C@@H](CCC(N)=O)C(=O)N[C@@H](Cc1c[nH]cn1)C(=O)N[C@@H](C)C(=O)N[C@@H](CC(C)C)C(=O)N[C@H](C(=O)N[C@@H](CO)C(=O)N[C@H](C(=O)N[C@@H](CO)C(=O)N[C@@H](CCCNC(=N)N)C(=O)NCC(=O)N[C@@H](CO)C(=O)N[C@@H](CO)C(=O)N[C@@H](CC(C)C)C(=O)N[C@@H](CCCCN)C(N)=O)C(C)C)[C@@H](C)O)[C@@H](C)O) [CXCR4 i4 loop compound 115] | 77.5 % of Vehicle | 92.1 % of Vehicle | 1 | –
2 | Palmitoyl-HATNSQRPRKLLAEK-NH2 (SMILES CCCCCCCCCCCCCCCC(=O)N[C@@H](Cc1c[nH]cn1)C(=O)N[C@@H](C)C(=O)N[C@H](C(=O)N[C@@H](CC(N)=O)C(=O)N[C@@H](CO)C(=O)N[C@@H](CCC(N)=O)C(=O)N[C@@H](CCCNC(=N)N)C(=O)N1CCC[C@H]1C(=O)N[C@@H](CCCNC(=N)N)C(=O)N[C@@H](CCCCN)C(=O)N[C@@H](CC(C)C)C(=O)N[C@@H](CC(C)C)C(=O)N[C@@H](C)C(=O)N[C@@H](CCC(=O)O)C(=O)N[C@@H](CCCCN)C(N)=O)[C@@H](C)O) [CXCR4 i2 loop compound 82] | – | – | – | AUC (% of vehicle), chemotaxis, SUPB-15, 1.0 uM (CXCR4 receptor [2]): 125 % of vehicle; Max (% of vehicle), chemotaxis, SUPB-15, 1.0 uM (CXCR4 receptor [2]): 126 % of vehicle; Peak Ratio, chemotaxis, SUPB-15, 1.0 uM (CXCR4 receptor [2]): 0.2
3 | GAKFKTSAQHALTSVSRGSSLKILSKGKRG-NH2 (not fully specified (N-terminus)) [CXCR4 i4 loop compound 108] | 89.5 % of Vehicle | 83.9 % of Vehicle | 5 | –
4 | Palmitoyl-GAKFKTSAQHALTSVR-NH2 (SMILES CCCCCCCCCCCCCCCC(=O)NCC(=O)N[C@@H](C)C(=O)N[C@@H](CCCCN)C(=O)N[C@@H](Cc1ccccc1)C(=O)N[C@@H](CCCCN)C(=O)N[C@H](C(=O)N[C@@H](CO)C(=O)N[C@@H](C)C(=O)N[C@@H](CCC(N)=O)C(=O)N[C@@H](Cc1c[nH]cn1)C(=O)N[C@@H](C)C(=O)N[C@@H](CC(C)C)C(=O)N[C@H](C(=O)N[C@@H](CO)C(=O)N[C@H](C(=O)N[C@@H](CCCNC(=N)N)C(N)=O)C(C)C)[C@@H](C)O)[C@@H](C)O) [CXCR4 i4 loop compound 116] | 65.3 % of Vehicle | 80.5 % of Vehicle | 1 | –
5 | GAKFKTSAQHALTSVSRGSSLKILSKGKRGGHSSVST-NH2 (not fully specified (N-terminus); also: dual lipid, backbone lipid not given here) [CXCR4 i4 loop compound 107] | 57.3 % of Vehicle | 49.5 % of Vehicle | 5 | –
6 | Palmitoyl-GAKFKTSAQHALTSVSRGSSLKILSKGKRGGSCFH-NH2 (SMILES CCCCCCCCCCCCCCCC(=O)NCC(=O)N[C@@H](C)C(=O)N[C@@H](CCCCN)C(=O)N[C@@H](Cc1ccccc1)C(=O)N[C@@H](CCCCN)C(=O)N[C@H](C(=O)N[C@@H](CO)C(=O)N[C@@H](C)C(=O)N[C@@H](CCC(N)=O)C(=O)N[C@@H](Cc1c[nH]cn1)C(=O)N[C@@H](C)C(=O)N[C@@H](CC(C)C)C(=O)N[C@H](C(=O)N[C@@H](CO)C(=O)N[C@H](C(=O)N[C@@H](CO)C(=O)N[C@@H](CCCNC(=N)N)C(=O)NCC(=O)N[C@@H](CO)C(=O)N[C@@H](CO)C(=O)N[C@@H](CC(C)C)C(=O)N[C@@H](CCCCN)C(=O)N[C@H](C(=O)N[C@@H](CC(C)C)C(=O)N[C@@H](CO)C(=O)N[C@@H](CCCCN)C(=O)NCC(=O)N[C@@H](CCCCN)C(=O)N[C@@H](CCCNC(=N)N)C(=O)NCC(=O)NCC(=O)N[C@@H](CO)C(=O)N[C@@H](CS)C(=O)N[C@@H](Cc1ccccc1)C(=O)N[C@@H](Cc1c[nH]cn1)C(N)=O)[C@@H](C)CC)C(C)C)[C@@H](C)O)[C@@H](C)O) [CXCR4 i4 loop compound 110] | 41 % of Vehicle | 42.1 % of Vehicle | 1 | –
7 | Palmitoyl-HATNSQRPRKLLAEKV-NH2 (SMILES CCCCCCCCCCCCCCCC(=O)N[C@@H](Cc1c[nH]cn1)C(=O)N[C@@H](C)C(=O)N[C@H](C(=O)N[C@@H](CC(N)=O)C(=O)N[C@@H](CO)C(=O)N[C@@H](CCC(N)=O)C(=O)N[C@@H](CCCNC(=N)N)C(=O)N1CCC[C@H]1C(=O)N[C@@H](CCCNC(=N)N)C(=O)N[C@@H](CCCCN)C(=O)N[C@@H](CC(C)C)C(=O)N[C@@H](CC(C)C)C(=O)N[C@@H](C)C(=O)N[C@@H](CCC(=O)O)C(=O)N[C@@H](CCCCN)C(=O)N[C@H](C(N)=O)C(C)C)[C@@H](C)O) [CXCR4 i2 loop compound 83] | – | – | – | AUC (% of vehicle), chemotaxis, SUPB-15, 1.0 uM (CXCR4 receptor [2]): 126 % of vehicle; Max (% of vehicle), chemotaxis, SUPB-15, 1.0 uM (CXCR4 receptor [2]): 110 % of vehicle; Peak Ratio, chemotaxis, SUPB-15, 1.0 uM (CXCR4 receptor [2]): 1
8 | Palmitoyl-GAKFKTSAQHALTSVSRGSSLKILSGGK-NH2 (SMILES CCCCCCCCCCCCCCCC(=O)NCC(=O)N[C@@H](C)C(=O)N[C@@H](CCCCN)C(=O)N[C@@H](Cc1ccccc1)C(=O)N[C@@H](CCCCN)C(=O)N[C@H](C(=O)N[C@@H](CO)C(=O)N[C@@H](C)C(=O)N[C@@H](CCC(N)=O)C(=O)N[C@@H](Cc1c[nH]cn1)C(=O)N[C@@H](C)C(=O)N[C@@H](CC(C)C)C(=O)N[C@H](C(=O)N[C@@H](CO)C(=O)N[C@H](C(=O)N[C@@H](CO)C(=O)N[C@@H](CCCNC(=N)N)C(=O)NCC(=O)N[C@@H](CO)C(=O)N[C@@H](CO)C(=O)N[C@@H](CC(C)C)C(=O)N[C@@H](CCCCN)C(=O)N[C@H](C(=O)N[C@@H](CC(C)C)C(=O)N[C@@H](CO)C(=O)NCC(=O)NCC(=O)N[C@@H](CCCCN)C(N)=O)[C@@H](C)CC)C(C)C)[C@@H](C)O)[C@@H](C)O) [CXCR4 i4 loop compound 112] | 48.9 % of Vehicle | 54.7 % of Vehicle | 0.2 | –
9 | Palmitoyl-GAKFKTSAQHALTSVSRGSSLKILSK-NH2 (SMILES CCCCCCCCCCCCCCCC(=O)NCC(=O)N[C@@H](C)C(=O)N[C@@H](CCCCN)C(=O)N[C@@H](Cc1ccccc1)C(=O)N[C@@H](CCCCN)C(=O)N[C@H](C(=O)N[C@@H](CO)C(=O)N[C@@H](C)C(=O)N[C@@H](CCC(N)=O)C(=O)N[C@@H](Cc1c[nH]cn1)C(=O)N[C@@H](C)C(=O)N[C@@H](CC(C)C)C(=O)N[C@H](C(=O)N[C@@H](CO)C(=O)N[C@H](C(=O)N[C@@H](CO)C(=O)N[C@@H](CCCNC(=N)N)C(=O)NCC(=O)N[C@@H](CO)C(=O)N[C@@H](CO)C(=O)N[C@@H](CC(C)C)C(=O)N[C@@H](CCCCN)C(=O)N[C@H](C(=O)N[C@@H](CC(C)C)C(=O)N[C@@H](CO)C(=O)N[C@@H](CCCCN)C(N)=O)[C@@H](C)CC)C(C)C)[C@@H](C)O)[C@@H](C)O) [CXCR4 i4 loop compound 114] | 34.2 % of Vehicle | 63.1 % of Vehicle | 1 | –
10 | Palmitoyl-MGYQKKLRSMTDKYRL-NH2 (SMILES CCCCCCCCCCCCCCCC(=O)N[C@@H](CCSC)C(=O)NCC(=O)N[C@@H](Cc1ccc(O)cc1)C(=O)N[C@@H](CCC(N)=O)C(=O)N[C@@H](CCCCN)C(=O)N[C@@H](CCCCN)C(=O)N[C@@H](CC(C)C)C(=O)N[C@@H](CCCNC(=N)N)C(=O)N[C@@H](CO)C(=O)N[C@@H](CCSC)C(=O)N[C@H](C(=O)N[C@@H](CC(=O)O)C(=O)N[C@@H](CCCCN)C(=O)N[C@@H](Cc1ccc(O)cc1)C(=O)N[C@@H](CCCNC(=N)N)C(=O)N[C@@H](CC(C)C)C(N)=O)[C@@H](C)O) [Compound No. 38 (Pal-MGYQKKLRSMTDKYRL-amide)] | – | – | – | IC50 (nM), calcium flux, CCRF-CEM (CXCR4 receptor [3]): 98 nM; AUC (% of), CHTX, SUP B-15, 1.0 uM (CXCR4 receptor [4]): 32.4%; Max (% of), CHTX, SUP B-15, 1.0 uM (CXCR4 receptor [4]): 49.6%; Peak Ratio, CHTX, CEM, 1.0 uM (CXCR4 receptor [4]): 0.2; Peak Ratio, CHTX, SUP B-15, 1.0 uM (CXCR4 receptor [4]): 0.2
11 | Palmitoyl-HATNSQRPRKLLAE-NH2 (SMILES CCCCCCCCCCCCCCCC(=O)N[C@@H](Cc1c[nH]cn1)C(=O)N[C@@H](C)C(=O)N[C@H](C(=O)N[C@@H](CC(N)=O)C(=O)N[C@@H](CO)C(=O)N[C@@H](CCC(N)=O)C(=O)N[C@@H](CCCNC(=N)N)C(=O)N1CCC[C@H]1C(=O)N[C@@H](CCCNC(=N)N)C(=O)N[C@@H](CCCCN)C(=O)N[C@@H](CC(C)C)C(=O)N[C@@H](CC(C)C)C(=O)N[C@@H](C)C(=O)N[C@@H](CCC(=O)O)C(N)=O)[C@@H](C)O) [CXCR4 i2 loop compound 81] | – | – | – | AUC (% of vehicle), chemotaxis, SUPB-15, 1.0 uM (CXCR4 receptor [2]): 79.8 % of vehicle; Max (% of vehicle), chemotaxis, SUPB-15, 1.0 uM (CXCR4 receptor [2]): 76.5 % of vehicle; Peak Ratio, chemotaxis, SUPB-15, 1.0 uM (CXCR4 receptor [2]): 0.2
12 | Palmitoyl-GAKFKTSAQHALTSVSRGSSLKILSKGKRGGHSSVST-NH2 (SMILES CCCCCCCCCCCCCCCC(=O)NCC(=O)N[C@@H](C)C(=O)N[C@@H](CCCCN)C(=O)N[C@@H](Cc1ccccc1)C(=O)N[C@@H](CCCCN)C(=O)N[C@H](C(=O)N[C@@H](CO)C(=O)N[C@@H](C)C(=O)N[C@@H](CCC(N)=O)C(=O)N[C@@H](Cc1c[nH]cn1)C(=O)N[C@@H](C)C(=O)N[C@@H](CC(C)C)C(=O)N[C@H](C(=O)N[C@@H](CO)C(=O)N[C@H](C(=O)N[C@@H](CO)C(=O)N[C@@H](CCCNC(=N)N)C(=O)NCC(=O)N[C@@H](CO)C(=O)N[C@@H](CO)C(=O)N[C@@H](CC(C)C)C(=O)N[C@@H](CCCCN)C(=O)N[C@H](C(=O)N[C@@H](CC(C)C)C(=O)N[C@@H](CO)C(=O)N[C@@H](CCCCN)C(=O)NCC(=O)N[C@@H](CCCCN)C(=O)N[C@@H](CCCNC(=N)N)C(=O)NCC(=O)NCC(=O)N[C@@H](Cc1c[nH]cn1)C(=O)N[C@@H](CO)C(=O)N[C@@H](CO)C(=O)N[C@H](C(=O)N[C@@H](CO)C(=O)N[C@H](C(N)=O)[C@@H](C)O)C(C)C)[C@@H](C)CC)C(C)C)[C@@H](C)O)[C@@H](C)O) [CXCR4 i4 loop compound 109] | 49.3 % of Vehicle | 49.8 % of Vehicle | 0.04 | –
